Data on two molecules can be found in patent publication US5563039, “TNF receptor-associated intracellular signaling proteins and methods of use” (Tularik, Inc., dated 1996).

The target in test [1] is cytoplasmic domain of Fas antigen expressed as GAL4bd chimera (yeast, UniProt P04386). Briefly: yeast two-hybrid, strain SFY526.
The target in test [2] is GST fusion protein containing the cytoplasmic domain of Fas antigen (Homo sapiens (Human), UniProt P25445). Briefly: GST pull-down of 35S-labeled TRADD.

B1: GAL4ad-TRADD (GAL4 activation domain fused to full length TRADD) (other)
chain: MAAGQNGHEEWVGSAYLFVESSLDKVVLSDAYAHPQQKVAVYRALQAALAESGGSPDVLQMLKIHRSDPQLIVQLRFCGRQPCGRFLRAYREGALRAALQRSLAAALAQHSVPLQLELRAGAERLDALLADEERCLSCILAQQPDRLRDEELAELEDALRNLKCGSGARGGDGEVASAPLQPPVPSLSEVKPPPPPPPAQTFLFQGQPVVNRPLSLKDQQTFARSVGLKWRKVGRSLQRGCRALRDPALDSLAYEYEREGLYEQAFQLLRRFVQAEGRRATLQRLVEALEENELTSLAEDLLGLTDPNGGLA
Consider B1, for which, in test [1], the binding result was “no binding”.

B2: 35S-labeled TRADD prepared by in vitro transcription and translation (other)
chain: MAAGQNGHEEWVGSAYLFVESSLDKVVLSDAYAHPQQKVAVYRALQAALAESGGSPDVLQMLKIHRSDPQLIVQLRFCGRQPCGRFLRAYREGALRAALQRSLAAALAQHSVPLQLELRAGAERLDALLADEERCLSCILAQQPDRLRDEELAELEDALRNLKCGSGARGGDGEVASAPLQPPVPSLSEVKPPPPPPPAQTFLFQGQPVVNRPLSLKDQQTFARSVGLKWRKVGRSLQRGCRALRDPALDSLAYEYEREGLYEQAFQLLRRFVQAEGRRATLQRLVEALEENELTSLAEDLLGLTDPNGGLA
modifications: 35S-labeled
B2: the binding result in test [2] is “no binding”.
